Data: patent US20110243934A1

Molecular target: EphA3 antigen (UniProt P29320)
Experiment: ELISA

UniProt P29320, sequence (P29320 21-541 limits assumed): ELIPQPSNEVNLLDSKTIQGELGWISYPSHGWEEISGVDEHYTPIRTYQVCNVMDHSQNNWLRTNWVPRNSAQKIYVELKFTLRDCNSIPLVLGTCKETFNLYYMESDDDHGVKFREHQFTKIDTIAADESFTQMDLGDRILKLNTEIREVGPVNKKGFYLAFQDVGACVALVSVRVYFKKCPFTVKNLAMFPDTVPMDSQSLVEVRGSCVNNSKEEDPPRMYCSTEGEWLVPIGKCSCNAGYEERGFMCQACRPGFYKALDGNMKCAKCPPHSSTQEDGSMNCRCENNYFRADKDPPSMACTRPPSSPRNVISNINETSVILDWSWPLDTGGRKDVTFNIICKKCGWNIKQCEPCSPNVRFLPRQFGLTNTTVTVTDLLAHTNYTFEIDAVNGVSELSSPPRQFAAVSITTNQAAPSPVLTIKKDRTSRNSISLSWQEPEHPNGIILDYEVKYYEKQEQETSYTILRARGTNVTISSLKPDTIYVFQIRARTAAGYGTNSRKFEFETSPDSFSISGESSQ

AFFINITY: 2.5 nM
Substance: monoclonal antibody IIIA4
